Patent publication US20160215045A1 (Eli Lilly, published 2016)

Assays:
human VEGFA165 [1] = target: T1, human VEGFA165 (human, UniProt P15692 207-395); test: cell-based or functional assay
human VEGFA165 [2] = target: T1, human VEGFA165; test: KinExA kinetic exclusion assay at 37 C, solution equilibrium with hVEGFA165
Description: (§1) A KinExA 3200 instrument is used to measure binding kinetics to human VEGFA165. Briefly, human VEGFA165 is covalently coupled to NHS-activated sepharose beads (GE Healthcare #17-0906-01) and the binding of free Mab to the conjugated beads is detected on the KinExA 3200. […] (depending on the temperature analyzed) in Casein Blocking Buffer (ThermoFisher #37528). […] It follows that the relative intensity of signal generated in these steps is proportional to the degree of free/uncomplexed compound present in each solution tested. The resultant composite set of fluorescent intensities is plotted as a function of the concentration of human VEGFA165 present in each discrete sample and fit using the N-curve analysis software (KinExA) to a standard two state binding model to determine KD for the given MOI. Statistical confidence is reported by calculation of the 95% confidence intervals.

human VEGFA165 [3] = target: T1, human VEGFA165; test: KinExA kinetic exclusion assay at 25 C, solution equilibrium with hVEGFA165
Description: as §1

human VEGFA165 [4] = target: T1, human VEGFA165; test: Biacore SPR at 25 C; antibody captured on Protein A, hVEGFA165 as analyte; 1:1 fit
Protocol: (§2) Immobilization of soluble Protein A (Calbiochem #539202) on a CM4 (GE Healthcare #BR-1005-34) or CMS (GE Healthcare #BR-1000-99) is prepared using EDC/NHS amine coupling method (GE Healthcare #BR-1000-50). Briefly, the surfaces of all four flow cells is activated by injecting a 1:1 mixture of EDC/NHS for seven minutes at 10 μL/min After which, soluble protein A is diluted to 50-100 μg/mL in 10 mM acetate buffer, pH 4.5, and immobilized for seven minutes onto flow cell (Fc) 2, 3 or 4 at a flow rate of 10 μL/min. Unreacted sites still remaining on the chip surface are blocked with a seven minute injection of ethanolamine at 10 μL/min Running buffer is HBS-EP+ (GE Healthcare #BR-1006-69) with addition of 100 mM NaCl. Compound samples are prepared at 1 μg/mL by dilution into running buffer. […] Resultant data is processed using standard double-referencing and fit to a 1:1 binding model using Biacore 2000 Evaluation software, version 4.1, to determine the association rate (kₒₙ, M⁻¹s⁻¹ units), dissociation rate (koff, s⁻¹ units). Calculation of the equilibrium dissociation constant (KD) is calculated from the following relationship, KD=koff/kₒₙ, and is presented in molar units.

human VEGFA165 [5] = target: T1, human VEGFA165; test: Biacore SPR at 25 C; antibody captured on Protein A, hVEGFA165 as analyte; value called an upper limit
Protocol: as §2

human VEGFA165 [6] = target: T1, human VEGFA165; test: Biacore SPR at 25 C; antibody captured on Protein A, hVEGFA165 as analyte; 1:1 fit; off-rate too slow to quantitate accurately
Protocol: as §2

T1 sequence (P15692 other isoform, or with tags, fused parts or gaps): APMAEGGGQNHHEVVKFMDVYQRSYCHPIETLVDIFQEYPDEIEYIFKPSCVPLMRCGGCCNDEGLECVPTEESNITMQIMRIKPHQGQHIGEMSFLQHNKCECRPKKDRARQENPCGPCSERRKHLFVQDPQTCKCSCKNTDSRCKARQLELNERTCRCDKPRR

IC50 for inhibition of VEGFA165 induced proliferation of ECFC (3H thymidine) (human VEGFA165 [1]): 1.38 nM
IC50 for inhibition of VEGFA induced cord formation in ADSC/ECFC co-culture (total tube area) (human VEGFA165 [1]): 1.57 nM
Kd (human VEGFA165 [2]): 0.183 nM
Kd (human VEGFA165 [3]): 0.027 nM
kon (human VEGFA165 [4]): 2.93e+06 M⁻¹ s⁻¹
Kd (human VEGFA165 [5]): ≤ 0.0132 nM
koff (human VEGFA165 [6]): 3.9e-05 s⁻¹
B1: parental anti-VEGFA antibody of Compound A (antibody, human IgG4 S228P, kappa, F234A L235A, V domains shown)
VH: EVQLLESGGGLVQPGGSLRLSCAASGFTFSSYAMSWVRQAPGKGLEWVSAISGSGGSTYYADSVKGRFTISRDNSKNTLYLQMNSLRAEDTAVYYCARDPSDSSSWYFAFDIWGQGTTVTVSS
VL: DIVMTQSPATLSVSPGQRATLSCRASQNIRNNLAWYQQKRGQAPRLLIYGASTRATGIPDRFSGSGSGADFTLTISKLEPEDFAVYYCQQYGSSPRTFGQGTKVDIKR
notes: also called Parental VEGFA Ab; parental VEGFA antibody
